# B1: ATL3 (parent)
# chain: FSFRYQQELEEEIKELYENFCKHN
# Variants of: B1
# Assay: protein stability index of a GFP-peptide fusion (GPS, HEK-293T) (PSI 1-6); higher = more stable
# Conditions: c terminus: a fixed tail appended
# 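Further: lentivirally expressed fusions sorted by FACS into six bins by GFP to DsRed ratio, PSI derived from sequencing read proportions per bin multiplied by bin number.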
row,Variant,protein stability index
1,FSFRYQQELEEEIKELYRNFCKHN [E18R],1.96
2,FSFRYQQELEEEIKELYSNFCKHN [E18S],1.91
3,FSFRYQQELEEEIKELYTNFCKHN [E18T],2.52
4,FSFRYQQELEEEIKELYVNFCKHN [E18V],3.55
5,FSFRYQQELEEEIKELYWNFCKHN [E18W],1.34
6,FSFRYQQELEEEIKELYYNFCKHN [E18Y],2.15
7,FSFRYQQELEEEIKELYEAFCKHN [N19A],2.28
8,FSFRYQQELEEEIKELYECFCKHN [N19C],2.02
9,FSFRYQQELEEEIKELYEDFCKHN [N19D],1.44
10,FSFRYQQELEEEIKELYEEFCKHN [N19E],2.06
11,FSFRYQQELEEEIKELYEFFCKHN [N19F],1.72
12,FSFRYQQELEEEIKELYEGFCKHN [N19G],1.73
13,FSFRYQQELEEEIKELYEHFCKHN [N19H],1.97
14,FSFRYQQELEEEIKELYEIFCKHN [N19I],2.04
15,FSFRYQQELEEEIKELYEKFCKHN [N19K],1.92
16,FSFRYQQELEEEIKELYELFCKHN [N19L],1.98
17,FSFRYQQELEEEIKELYEMFCKHN [N19M],1.66
18,FSFRYQQELEEEIKELYEPFCKHN [N19P],2.16
19,FSFRYQQELEEEIKELYEQFCKHN [N19Q],2.04
20,FSFRYQQELEEEIKELYERFCKHN [N19R],2.31
21,FSFRYQQELEEEIKELYESFCKHN [N19S],2.41
22,FSFRYQQELEEEIKELYETFCKHN [N19T],1.99
23,FSFRYQQELEEEIKELYEVFCKHN [N19V],1.81
24,FSFRYQQELEEEIKELYEWFCKHN [N19W],1.73

row,Variant,protein stability index
1,FSFRYQQELEEEIKELYEYFCKHN [N19Y],1.89
2,FSFRYQQELEEEIKELYENACKHN [F20A],2.83
3,FSFRYQQELEEEIKELYENCCKHN [F20C],2.66
4,FSFRYQQELEEEIKELYENDCKHN [F20D],2.62
5,FSFRYQQELEEEIKELYENECKHN [F20E],3.58
6,FSFRYQQELEEEIKELYENGCKHN [F20G],2.81
7,FSFRYQQELEEEIKELYENHCKHN [F20H],2.73
8,FSFRYQQELEEEIKELYENICKHN [F20I],1.71
9,FSFRYQQELEEEIKELYENKCKHN [F20K],2.81
10,FSFRYQQELEEEIKELYENLCKHN [F20L],2.19
11,FSFRYQQELEEEIKELYENMCKHN [F20M],2.17
12,FSFRYQQELEEEIKELYENNCKHN [F20N],2.61
13,FSFRYQQELEEEIKELYENPCKHN [F20P],2.5
14,FSFRYQQELEEEIKELYENQCKHN [F20Q],2.55
15,FSFRYQQELEEEIKELYENRCKHN [F20R],2.8
16,FSFRYQQELEEEIKELYENSCKHN [F20S],3.01
17,FSFRYQQELEEEIKELYENTCKHN [F20T],2.41
18,FSFRYQQELEEEIKELYENVCKHN [F20V],2.02
19,FSFRYQQELEEEIKELYENWCKHN [F20W],1.9
20,FSFRYQQELEEEIKELYENYCKHN [F20Y],2.38
21,FSFRYQQELEEEIKELYENFAKHN [C21A],3.33
22,FSFRYQQELEEEIKELYENFDKHN [C21D],3.33
23,FSFRYQQELEEEIKELYENFEKHN [C21E],3.12
24,FSFRYQQELEEEIKELYENFFKHN [C21F],2.1

row,Variant,protein stability index
1,FSFRYQQELEEEIKELYENFGKHN [C21G],2.55
2,FSFRYQQELEEEIKELYENFHKHN [C21H],2.18
3,FSFRYQQELEEEIKELYENFIKHN [C21I],2.05
4,FSFRYQQELEEEIKELYENFKKHN [C21K],2.66
5,FSFRYQQELEEEIKELYENFLKHN [C21L],2.13
6,FSFRYQQELEEEIKELYENFMKHN [C21M],2.32
7,FSFRYQQELEEEIKELYENFNKHN [C21N],2.58
8,FSFRYQQELEEEIKELYENFPKHN [C21P],2.11
9,FSFRYQQELEEEIKELYENFQKHN [C21Q],3.08
10,FSFRYQQELEEEIKELYENFRKHN [C21R],2.46
11,FSFRYQQELEEEIKELYENFSKHN [C21S],2.48
12,FSFRYQQELEEEIKELYENFTKHN [C21T],1.97
13,FSFRYQQELEEEIKELYENFVKHN [C21V],2.62
14,FSFRYQQELEEEIKELYENFWKHN [C21W],2.31
15,FSFRYQQELEEEIKELYENFYKHN [C21Y],1.77
16,FSFRYQQELEEEIKELYENFCAHN [K22A],2.45
17,FSFRYQQELEEEIKELYENFCCHN [K22C],2.06
18,FSFRYQQELEEEIKELYENFCDHN [K22D],2.42
19,FSFRYQQELEEEIKELYENFCEHN [K22E],2.41
20,FSFRYQQELEEEIKELYENFCFHN [K22F],2.08
21,FSFRYQQELEEEIKELYENFCGHN [K22G],2.58
22,FSFRYQQELEEEIKELYENFCHHN [K22H],2.04
23,FSFRYQQELEEEIKELYENFCIHN [K22I],2.23
24,FSFRYQQELEEEIKELYENFCLHN [K22L],2.77

row,Variant,protein stability index
1,FSFRYQQELEEEIKELYENFCMHN [K22M],2.24
2,FSFRYQQELEEEIKELYENFCNHN [K22N],2.54
3,FSFRYQQELEEEIKELYENFCPHN [K22P],1.97
4,FSFRYQQELEEEIKELYENFCQHN [K22Q],2.93
5,FSFRYQQELEEEIKELYENFCRHN [K22R],2.12
6,FSFRYQQELEEEIKELYENFCSHN [K22S],2.33
7,FSFRYQQELEEEIKELYENFCTHN [K22T],3.02
8,FSFRYQQELEEEIKELYENFCVHN [K22V],1.99
9,FSFRYQQELEEEIKELYENFCWHN [K22W],1.35
10,FSFRYQQELEEEIKELYENFCYHN [K22Y],2.01
11,FSFRYQQELEEEIKELYENFCKAN [H23A],2.25
12,FSFRYQQELEEEIKELYENFCKCN [H23C],1.84
13,FSFRYQQELEEEIKELYENFCKDN [H23D],2.12
14,FSFRYQQELEEEIKELYENFCKEN [H23E],2.63
15,FSFRYQQELEEEIKELYENFCKFN [H23F],2.19
16,FSFRYQQELEEEIKELYENFCKGN [H23G],2.04
17,FSFRYQQELEEEIKELYENFCKIN [H23I],2.43
18,FSFRYQQELEEEIKELYENFCKKN [H23K],3.21
19,FSFRYQQELEEEIKELYENFCKLN [H23L],2.73
20,FSFRYQQELEEEIKELYENFCKMN [H23M],2.49
21,FSFRYQQELEEEIKELYENFCKNN [H23N],2.3
22,FSFRYQQELEEEIKELYENFCKPN [H23P],1.6
